From paper PMC5600425 come the findings set out here.

Where two headings read alike, the source gives them in different places.

For data set [1], the target named is T1, AgrA DBD (LytTR domain) (Staphylococcus aureus, UniProt Q5HEG2 138-238).
T1 sequence: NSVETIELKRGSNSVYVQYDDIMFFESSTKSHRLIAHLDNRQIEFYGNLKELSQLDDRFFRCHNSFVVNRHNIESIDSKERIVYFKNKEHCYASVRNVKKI
Briefly: X-ray crystallography.

In data set [2] the target is T2, AgrA~P (Staphylococcus aureus COL, UniProt Q5HEG2 1-238).
T2 sequence: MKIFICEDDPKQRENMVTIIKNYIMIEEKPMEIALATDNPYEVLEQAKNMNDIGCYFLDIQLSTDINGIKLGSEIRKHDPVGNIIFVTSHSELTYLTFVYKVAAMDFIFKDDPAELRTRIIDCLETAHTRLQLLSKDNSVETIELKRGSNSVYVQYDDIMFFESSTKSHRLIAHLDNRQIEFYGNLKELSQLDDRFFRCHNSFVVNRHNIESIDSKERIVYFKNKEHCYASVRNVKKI
Briefly: competition.

In data set [3] the target is T3, AgrA (Staphylococcus aureus COL, UniProt Q5HEG2 1-238).
T3 sequence: T2 sequence
Briefly: competition.

In data set [4] the target is T1, AgrA DBD (LytTR domain). Briefly: X-ray crystallography. This is another data set of the same source.
The target in data set [5] is T1, AgrA DBD (LytTR domain). Briefly: X-ray crystallography. This is another data set of the same source.
Data set [6] deals with T1, AgrA DBD (LytTR domain). Briefly: X-ray crystallography. This is another data set of the same source.
Data set [7] concerns the target T3, AgrA. Briefly: SPR. (SPR reads the build-up and loss of mass on a sensor chip optically.)
For data set [8], the target named is T2, AgrA~P. Briefly: SPR.

B1: P3_S1 (dsDNA)
DNA 1: TCGACTAGTTAAGAAA
DNA 2: ATTTCTTAACTAGTCG
Take B1: the binding result in the data set with AgrA DBD (LytTR domain) [1] was “binds”.

B2: P3 promoter (SPR) (dsDNA)
DNA 1: TTCTTAACTAGTCGTTTTTTATTCTTAACTGTAA
DNA 2: TTACAGTTAAGAATAAAAAACGACTAGTTAAGAA
As to B2, the binding result with AgrA~P [2] and with AgrA [3] was “binds” throughout.

B3: P3_S2 (dsDNA)
DNA 1: ATTTACAGTTAAGAAT
DNA 2: AATTCTTAACTGTAAA
For the molecule B3, the binding result in the data set with AgrA DBD (LytTR domain) [4] is “binds”.

B4: P2_S1 (dsDNA)
DNA 1: TCCTACAGTTAGGCAA
DNA 2: ATTGCCTAACTGTAGG
Take B4: the binding result with AgrA DBD (LytTR domain) [5] is recorded as “binds”.

B5: P2_S2 (dsDNA)
DNA 1: TTTAACAGTTAAGTAT
DNA 2: AATACTTAACTGTTAA
In the case of B5, the binding result with AgrA DBD (LytTR domain) [6] is recorded as “binds”.

B6: P1 promoter (SPR) (dsDNA)
DNA 1: TCGAAATACCCGATGAAGTAAGTAGCATTAACTT
DNA 2: AAGTTAATGCTACTTACTTCATCGGGTATTTCGA
On to B6, for which the binding result in the data set with AgrA [3] is given as “binds”.

B7: P2-P3 intergenic region (negative control) (dsDNA)
DNA 1: TTTTTATGTTAAAATATTAAATACAAATTAC
DNA 2: GTAATTTGTATTTAATATTTTAACATAAAAA
In the case of B7, the binding result with AgrA [7] and with AgrA~P [8] was “no binding” throughout.
